From PMC9428257, “Developing high-affinity decoy receptors to treat multiple myeloma and diffuse large B cell lymphoma” (The Journal of Experimental Medicine, 2022) come the findings set out here.

The assay concerns the target T1, human BAFF (B cell activating factor) (human, UniProt Q9Y275 134-285).
T1 construct: also called hBAFF
Nature of the assay: flow cytometry on cells; yeast-displayed sBCMA (wild type or mutant clone) incubated with increasing concentrations of soluble APRIL or BAFF; same reagents and protocols as the library sorts (PBS with 0.1% BSA, room temperature); KD from a one site-specific binding fit in GraphPad Prism. The note with it: one partner purified. In general terms: Flow cytometry measures light scatter and fluorescence of single cells or particles in a stream.

T1 sequence (Q9Y275 134-285): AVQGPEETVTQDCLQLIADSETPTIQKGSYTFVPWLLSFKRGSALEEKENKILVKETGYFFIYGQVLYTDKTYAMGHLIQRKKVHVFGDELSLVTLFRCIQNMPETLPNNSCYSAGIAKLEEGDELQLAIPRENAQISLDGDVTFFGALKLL

B1: yeast-displayed mutant sBCMA V3 (S16G, H19Y, T36A, N53D) (domain or fragment, human, UniProt Q02223 1-54, looked up)
chain: MLQMAGQCSQNEYFDGLLYACIPCQLRCSSNTPPLACQRYCNASVTNSVKGTDA
notes: B cell maturation antigen (BCMA), human, extracellular domain, amino acids Met1-Ala54, with the four V3 mutations
For orientation: Kd means the free concentration of one partner at which half of the binding sites on the other are occupied at equilibrium, for simple one-to-one binding. Turning to B1, binding was characterised by a dissociation constant (Kd) of 9 pM.
